For the experiment, the target named is OsPR5-His (rice (Oryza sativa)) (UniProt P31110). The experiment can be described thus: BLI. In general terms: In BLI a coated tip is dipped into the sample, and binding shifts an interference pattern.

This passage reports Kd results from article doi:10.1101/2025.07.03.663104.

Broadly, the Kd is the constant that tells how readily two partners part at equilibrium.

Chain of OsPR5-His (rice (Oryza sativa)) (P31110 27-177): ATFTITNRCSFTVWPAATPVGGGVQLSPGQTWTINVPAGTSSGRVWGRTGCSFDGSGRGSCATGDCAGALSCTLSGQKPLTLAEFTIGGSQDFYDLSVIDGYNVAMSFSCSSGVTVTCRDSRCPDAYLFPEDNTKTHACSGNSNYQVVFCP

GBP-His (natural protein) displayed a Kd of 0.745 nM.

“ThBP15k (recombinant, no tag named) (natural protein)”: the Kd was determined as 25.9 nM.
